Results taken from paper doi:10.1101/2024.11.11.622902.
Where “and” joins values, the source holds several entries; their conditions need not be identical. Equal entries are not always repeated. Where two headings read alike, the source gives them in different places.

Assays:
[1] = biological target: porcine glyceraldehyde-3-phosphate dehydrogenase (pGAPDH), wild type (pig (Sus scrofa)); assay: SEC
[2] = biological target: porcine glyceraldehyde-3-phosphate dehydrogenase (pGAPDH), wild type (pig (Sus scrofa)); assay: SEC; remark: listed apart in the source
[3] = biological target: porcine glyceraldehyde-3-phosphate dehydrogenase (pGAPDH), wild type (pig (Sus scrofa)); assay: SEC; remark: listed apart in the source
[4] = biological target: porcine glyceraldehyde-3-phosphate dehydrogenase (pGAPDH), wild type (pig (Sus scrofa)); assay: SEC; remark: listed apart in the source
[5] = biological target: porcine glyceraldehyde-3-phosphate dehydrogenase (pGAPDH), wild type (pig (Sus scrofa)); assay: SEC; remark: listed apart in the source
[6] = biological target: porcine glyceraldehyde-3-phosphate dehydrogenase (pGAPDH), wild type (pig (Sus scrofa)); assay: SEC; remark: listed apart in the source
[7] = biological target: human glyceraldehyde-3-phosphate dehydrogenase (hGAPDH), wild type (human); assay: SEC
[8] = biological target: human glyceraldehyde-3-phosphate dehydrogenase (hGAPDH), wild type (human); assay: SEC; remark: listed apart in the source
[9] = biological target: human glyceraldehyde-3-phosphate dehydrogenase (hGAPDH), wild type (human); assay: native MS
[10] = biological target: human glyceraldehyde-3-phosphate dehydrogenase (hGAPDH), wild type (human); assay: native MS; remark: listed apart in the source
[11] = biological target: S-nitrosylated human GAPDH (hGAPDH treated with S-nitrosocysteine, CysNO) (human); assay: native MS

For “porcine glyceraldehyde-3-phosphate dehydrogenase (pGAPDH), wild type (enzyme)”, the stoichiometry N [1] was 2, the stoichiometry N [2] was 4 and the stoichiometry N [3] was 4 and 2. For the same substance, the stoichiometry N [4] was 4, the stoichiometry N [5] was 4 and the stoichiometry N [6] was 4.

With “human glyceraldehyde-3-phosphate dehydrogenase (hGAPDH), wild type (enzyme)” the stoichiometry N [7] was 4, the stoichiometry N [8] was 4 and the stoichiometry N [9] was 4. It also gave a stoichiometry N [10] of 4.

Work on “S-nitrosylated human GAPDH (hGAPDH treated with S-nitrosocysteine, CysNO) (enzyme)” yielded a stoichiometry N [11] of 4.
